# Measurements published in publication doi:10.1101/2025.10.24.684422.
# Experiments:
# [1] = biological target: HAESA-LIKE 3 (HSL3) ectodomain, wild type (Arabidopsis thaliana); assay: ITC
# [2] = biological target: HSL3 ectodomain Gln120Ala (Arabidopsis thaliana); assay: ITC
substance,measurement,setting,value
CTNIP4^C58A(46-63) (peptide),fold reduction in binding affinity against CTNIP4(46-70) (Cys-Cys),[1],200 fold
CTNIP4(48-70)_(Cys-Cys) (peptide),fold loss of affinity against CTNIP4(46-70) (Cys-Cys),[1],200 fold
CTNIP4^I61Y (peptide),fold reduction in binding affinity against CTNIP4(46-70) (Cys-Cys),[1],120 fold
CTNIP4^C58A.C68A(46-70) (peptide),fold impairment of binding against CTNIP4(46-70) (Cys-Cys),[1],200 fold
CTNIP4(47-70)_(Cys-Cys) (peptide),fold reduction in binding against CTNIP4(46-70) (Cys-Cys),[1],4 fold
CTNIP4(46-70)_(Cys-Cys) (peptide),fold reduction in binding affinity against wild-type HSL3,[2],60 fold
